The assay addresses importin-α/β carrier protein complex (α/β importin heterodimer). Put plainly: MST; importin β labelled with Cy3; α/β importin heterodimers at equimolar 50 nM; MNT serially diluted from 1 µM (MNT_(N-EGF)) or 4 µM (MNT_(N-affibody), MNT_(C-EGF)); 20 mM HEPES pH 7.4, 110 mM KCl, 5 mM NaHCO3, 5 mM MgCl2, 0.1 mM CaCl2, 1 mM EGTA, 1 mM DTT; Monolith NT.115.

Two substances from publication PMC7064642 can be followed below.

The Kd is the concentration at which binding is half-saturated.

In the case of “6His-DTox-HMP-NLS-EGF modular nanotransporter (MNT_(C-EGF))”, the Kd is 127 nM. Next, “EGF-6His-DTox-HMP-NLS modular nanotransporter (MNT_(N-EGF))”: 15.8 nM.
